# Experimental data taken from article PMC7828216, “Identification and Functional Analysis of Apoptotic Protease Activating Factor-1 (Apaf-1) from Spodoptera litura” (Insects, 2021).
# B1: Sl-Apaf-1-CARD (caspase recruitment domain of Spodoptera litura apoptotic protease activating factor-1, 1-88aa) (domain or fragment, UniProt A0A7T6ZKB7 1-88, looked up)
# chain: MDKHKRLLLQKYQQDIIDDLDVAYVYDELFAKHVISAEEVDRMFSLTTRIDQTRFLLDSLIRNGTNGTYQVFVDSLQKDYGWLWEKLA
# notes: caspase recruitment domain, residues 1-88; Cloned with Nde I and Xho I in pET-22b; also called Sl-Af88; Sl-Apaf-1-CARD domain protein fragment
# B2: Sl-caspase5-CARD (caspase recruitment domain of Spodoptera litura caspase-5, 1-132aa) (domain or fragment, UniProt R4I520 1-132, looked up)
# chain: MQREHRDAIQSNFSSLVERTDLDSVVTALYEKGVFSEQMIEPYRNNSELERDRKRRLYMDVTRRGPHAFAHLVDTLGELGYWDLARDLDPDSPFSFSSQQRSHPIPQPKPADNDNFRSLSTSNRPRAEPNRI
# notes: Sl-caspase-5 of Spodoptera litura (a homologue of mammalian caspase-9; Dronc), GenBank JQ768051; caspase recruitment domain, residues 1-132; Cloned with Nde I and Xho I in pET-22b; also called caspase-5-CARD domain
# Columns and labels:
# [1] = target: B2; assay: ITC; Sl-Apaf-1-CARD at 50 µM, Sl-caspase-5-CARD at 450 µM; 10 mM HEPES, 100 mM NaCl, 2 mM DTT, pH 7.4; 20 °C; 20 injections; VP-ITC; which protein was in the cell is not said; settings: both partners purified
# [2] = target: B1; assay: as above; settings: both partners purified
binder,measurement,setting,value
B1,Ka,[1],1.28e+06 M⁻¹
B2,dH,[2],-15.5 kcal/mol
same,stoichiometry N,[2],1
